In PMC10229872:

Target: Programmed cell death-1 (human (endogenous in PBMCs)) (UniProt Q15116)
Chain of UniProt Q15116 (Q15116 25-288): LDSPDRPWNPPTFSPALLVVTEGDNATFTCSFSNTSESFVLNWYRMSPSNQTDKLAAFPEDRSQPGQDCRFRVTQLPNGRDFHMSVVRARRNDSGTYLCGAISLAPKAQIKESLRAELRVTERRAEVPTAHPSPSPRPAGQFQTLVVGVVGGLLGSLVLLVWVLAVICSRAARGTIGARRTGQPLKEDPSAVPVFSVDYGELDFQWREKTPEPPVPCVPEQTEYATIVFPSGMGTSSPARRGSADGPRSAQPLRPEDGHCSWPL

Substance	reduction of intracellular IFN-gamma in PBMCs stimulated with anti-CD3/CD28 antibodies (FACS) [%]	reduction of intracellular IL-2 in PBMCs stimulated with anti-CD3/CD28 antibodies (FACS) [%]	reduction of intracellular IL-10 in PBMCs stimulated with anti-CD3/CD28 antibodies (FACS) [%]	reduction of intracellular TNF-alpha in PBMCs stimulated with anti-CD3/CD28 antibodies (FACS) [%]	increase of intracellular IL-2 in PBMCs stimulated with anti-CD3/CD28 antibodies (FACS) [%]
soluble monomeric human PD-L1 (from UniProt Q9NZQ7 19-229) (domain or fragment)	55.3	32.5	48.5	47.3	
soluble recombinant Fc fusion protein of hPD-L1 (from UniProt Q9NZQ7 19-229)	15.1				14.2
